Source: IntAct's records for PubMed 28533415

B1: Vacuolar protein 8 (Saccharomyces cerevisiae), P39968 (parent)
chain: MGSCCSCLKDSSDEASVSPIADNEREAVTLLLGYLEDKDQLDFYSGGPLKALTTLVYSDNLNLQRSAALAFAEITEKYVRQVSREVLEPILILLQSQDPQIQVAACAALGNLAVNNENKLLIVEMGGLEPLINQMMGDNVEVQCNAVGCITNLATRDDNKHKIATSGALIPLTKLAKSKHIRVQRNATGALLNMTHSEENRKELVNAGAVPVLVSLLSSTDPDVQYYCTTALSNIAVDEANRKKLAQTEPRLVSKLVSLMDSPSSRVKCQATLALRNLASDTSYQLEIVRAGGLPHLVKLIQSDSIPLVLASVACIRNISIHPLNEGLIVDAGFLKPLVRLLDYKDSEEIQCHAVSTLRNLAASSEKNRKEFFESGAVEKCKELALDSPVSVQSEISACFAILALADVSKLDLLEANILDALIPMTFSQNQEVSGNAAAALANLCSRVNNYTKIIEAWDRPNEGIRGFLIRFLKSDYATFEHIALWTILQLLESHNDKVEDLVKNDDDIINGVRKMADVTFERLQRSGIDVKNPGSNNNPSSNDNNSNNNDTGSEHQPVEDASLELYNITQQILQFLH
partner: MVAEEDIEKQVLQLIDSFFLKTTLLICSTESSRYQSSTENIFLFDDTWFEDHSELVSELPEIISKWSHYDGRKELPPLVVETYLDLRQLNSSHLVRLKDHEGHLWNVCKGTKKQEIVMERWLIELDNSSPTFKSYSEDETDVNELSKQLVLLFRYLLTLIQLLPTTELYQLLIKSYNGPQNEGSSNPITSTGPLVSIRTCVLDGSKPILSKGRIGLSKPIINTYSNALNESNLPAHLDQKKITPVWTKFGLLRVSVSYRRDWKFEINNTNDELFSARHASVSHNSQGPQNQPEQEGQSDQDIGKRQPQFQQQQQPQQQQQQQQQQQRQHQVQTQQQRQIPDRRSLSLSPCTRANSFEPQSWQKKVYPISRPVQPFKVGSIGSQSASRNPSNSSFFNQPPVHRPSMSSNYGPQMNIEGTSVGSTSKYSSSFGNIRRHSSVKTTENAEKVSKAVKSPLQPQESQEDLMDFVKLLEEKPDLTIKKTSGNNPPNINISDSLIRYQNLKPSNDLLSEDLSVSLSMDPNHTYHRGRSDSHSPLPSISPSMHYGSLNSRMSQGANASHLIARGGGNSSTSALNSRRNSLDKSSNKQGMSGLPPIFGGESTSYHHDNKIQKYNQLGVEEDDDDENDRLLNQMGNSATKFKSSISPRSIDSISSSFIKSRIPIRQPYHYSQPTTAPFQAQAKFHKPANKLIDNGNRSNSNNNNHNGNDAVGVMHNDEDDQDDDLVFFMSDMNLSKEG
B2: Vacuolar protein 8 (Saccharomyces cerevisiae), P39968 (parent)
chain: B1 chain
partner: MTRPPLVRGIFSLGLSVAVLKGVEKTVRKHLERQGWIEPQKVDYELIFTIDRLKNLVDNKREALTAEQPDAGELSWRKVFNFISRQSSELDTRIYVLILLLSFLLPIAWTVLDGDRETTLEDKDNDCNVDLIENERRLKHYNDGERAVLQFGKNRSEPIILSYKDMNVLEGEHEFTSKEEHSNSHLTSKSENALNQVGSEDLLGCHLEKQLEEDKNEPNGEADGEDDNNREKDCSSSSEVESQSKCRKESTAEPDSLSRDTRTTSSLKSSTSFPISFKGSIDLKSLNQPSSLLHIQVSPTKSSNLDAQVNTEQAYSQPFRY
B3: Vacuolar protein 8 (Saccharomyces cerevisiae), P39968 (parent)
chain: B1 chain
partner: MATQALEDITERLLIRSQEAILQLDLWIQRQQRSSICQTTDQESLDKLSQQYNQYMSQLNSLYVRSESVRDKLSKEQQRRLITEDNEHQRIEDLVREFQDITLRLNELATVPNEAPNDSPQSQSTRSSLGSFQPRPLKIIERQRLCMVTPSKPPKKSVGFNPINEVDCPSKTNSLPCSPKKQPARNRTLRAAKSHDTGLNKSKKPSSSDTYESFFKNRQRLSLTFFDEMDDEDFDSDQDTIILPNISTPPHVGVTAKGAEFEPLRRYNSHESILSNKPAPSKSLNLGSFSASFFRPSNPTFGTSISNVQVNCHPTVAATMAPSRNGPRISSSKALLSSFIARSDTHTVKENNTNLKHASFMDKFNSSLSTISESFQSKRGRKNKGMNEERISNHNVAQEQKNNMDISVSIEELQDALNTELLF
B4: Vacuolar protein 8 (Saccharomyces cerevisiae), P39968 (parent)
chain: B1 chain
partner: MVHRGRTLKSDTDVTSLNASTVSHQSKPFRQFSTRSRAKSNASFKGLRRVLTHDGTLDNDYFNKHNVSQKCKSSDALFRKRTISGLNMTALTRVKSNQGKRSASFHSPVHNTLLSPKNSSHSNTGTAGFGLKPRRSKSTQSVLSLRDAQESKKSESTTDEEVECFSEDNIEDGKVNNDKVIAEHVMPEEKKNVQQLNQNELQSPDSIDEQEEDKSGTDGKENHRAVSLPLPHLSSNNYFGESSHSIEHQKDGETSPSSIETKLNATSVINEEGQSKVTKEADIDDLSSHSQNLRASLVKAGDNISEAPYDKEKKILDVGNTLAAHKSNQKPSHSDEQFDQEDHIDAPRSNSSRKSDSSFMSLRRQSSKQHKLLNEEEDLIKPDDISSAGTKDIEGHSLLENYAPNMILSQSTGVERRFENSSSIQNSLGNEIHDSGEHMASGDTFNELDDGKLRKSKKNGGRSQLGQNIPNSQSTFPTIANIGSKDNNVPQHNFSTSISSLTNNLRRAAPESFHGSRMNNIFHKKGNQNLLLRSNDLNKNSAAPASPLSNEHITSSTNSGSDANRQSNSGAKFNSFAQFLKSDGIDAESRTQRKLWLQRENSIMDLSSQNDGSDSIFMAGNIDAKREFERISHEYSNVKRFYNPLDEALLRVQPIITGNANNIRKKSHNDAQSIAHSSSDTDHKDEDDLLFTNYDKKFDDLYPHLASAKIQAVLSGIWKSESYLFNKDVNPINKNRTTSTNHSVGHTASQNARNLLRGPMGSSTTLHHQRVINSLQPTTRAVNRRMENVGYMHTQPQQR
B5: Nucleus-vacuole junction protein 1 (Saccharomyces cerevisiae), P38881 (parent)
chain: B2 partner
partner: B1 chain

Variants of: B1
Settings: with atg13_yeast ATG13, Q06628

effect of a mutation on the interaction	Variant
disrupting interaction strength	MGSCCSCLKDSSDEASVSPIADNEREAVTLLLGYLEDKDQLDFYSGGPLKALTTLVYSDNLNLQRSAALAFAEITEKYVRQVSREVLEPILILLQSQDPQIQVAACAALGNLAVNNENKLLIVEMGGLEPLINQMMGDNVEVQCNAVGCITNLATRDDNKHKIATSGALIPLTKLAKSKHIRVQRNATGALLNMTHSEENRKELVNAGAVPVLVSLLSSTDPDVQYYCTTALSNIAVDEANRKKLAQTEPRLVSKLVSLMDSPSSRVKCQATLALENLASDTSYQLEIVRAGGLPHLVKLIQSDSIPLVLASVACIENISIHPLNEGLIVDAGFLKPLVRLLDYKDSEEIQCHAVSTLENLAASSEKNRKEFFESGAVEKCKELALDSPVSVQSEISACFAILALADVSKLDLLEANILDALIPMTFSQNQEVSGNAAAALANLCSRVNNYTKIIEAWDRPNEGIRGFLIRFLKSDYATFEHIALWTILQLLESHNDKVEDLVKNDDDIINGVRKMADVTFERLQRSGIDVKNPGSNNNPSSNDNNSNNNDTGSEHQPVEDASLELYNITQQILQFLH [R276E;R317E;R359E]

Variants of: B2
Settings: with nvj1_yeast NVJ1, P38881

effect of a mutation on the interaction	Variant
disrupting interaction strength	MGSCCSCLKDSSDEASVSPIADNEREAVTLLLGYLEDKDQLDFYSGGPLKRLTTLVYSDNLNLQRSAALAFAEITEKYVRQVSREVLEPILILLQSQDPQIQVAACAALGNLAVNNENKLLIVEMGGLEPLINQMMGDNVEVQCNAVGCITNLATRDDNKHKIATSGALIPLTKLAKSKHIRVQRNATGALLNMTHSEENRKELVNAGAVPVLVSLLSSTDPDVQYYCTTALSNIAVDEANRKKLAQTEPRLVSKLVSLMDSPSSRVKCQATLALRNLASDTSYQLEIVRAGGLPHLVKLIQSDSIPLVLASVACIRNISIHPLNEGLIVDAGFLKPLVRLLDYKDSEEIQCHAVSTLRNLAASSEKNRKEFFESGAVEKCKELALDSPVSVQSEISACFAILALADVSKLDLLEANILDALIPMTFSQNQEVSGNAAAALANLCSRVNNYTKIIEAWDRPNEGIRGFLIRFLKSDYATFEHIALWTILQLLESHNDKVEDLVKNDDDIINGVRKMADVTFERLQRSGIDVKNPGSNNNPSSNDNNSNNNDTGSEHQPVEDASLELYNITQQILQFLH [A51R]
disrupting interaction strength	MGSCCSCLKDSSDEASVSPIADNEREAVTLLLGYLEDKDQLDFYSGGPLKALTTRVYSDNLNLQRSAALAFAEITEKYVRQVSREVLEPILILLQSQDPQIQVAACAALGNLAVNNENKLLIVEMGGLEPLINQMMGDNVEVQCNAVGCITNLATRDDNKHKIATSGALIPLTKLAKSKHIRVQRNATGALLNMTHSEENRKELVNAGAVPVLVSLLSSTDPDVQYYCTTALSNIAVDEANRKKLAQTEPRLVSKLVSLMDSPSSRVKCQATLALRNLASDTSYQLEIVRAGGLPHLVKLIQSDSIPLVLASVACIRNISIHPLNEGLIVDAGFLKPLVRLLDYKDSEEIQCHAVSTLRNLAASSEKNRKEFFESGAVEKCKELALDSPVSVQSEISACFAILALADVSKLDLLEANILDALIPMTFSQNQEVSGNAAAALANLCSRVNNYTKIIEAWDRPNEGIRGFLIRFLKSDYATFEHIALWTILQLLESHNDKVEDLVKNDDDIINGVRKMADVTFERLQRSGIDVKNPGSNNNPSSNDNNSNNNDTGSEHQPVEDASLELYNITQQILQFLH [L55R]

Variants of: B2
Settings: with nvj1_yeast NVJ1, P38881
Remark: another data set of the same source

effect of a mutation on the interaction	Variant
disrupting interaction strength	MGSCCSCLKDSSDEASVSPIADNEREAVTLLLGYLEDKDQLDFYSGGPLKALTTLVYSDNLNLQRSAALAFAEITEKYVRQVSREVLEPILILLQSQDPQIQVAACAALGNLAVNNENKLLIVEMGGLEPLINQMMGDNVEVQCNAVGCITNLATRDDNKHKIATSGALIPLTKLAKSKHIRVQRNATGALLNMTHSEENRKELVNAGAVPVLVSLLSSTDPDVQYYCTTALSNIAVDEANRKKLAQTEPRLVSKLVSLMDSPSSRVKCQATLALENLASDTSYQLEIVRAGGLPHLVKLIQSDSIPLVLASVACIENISIHPLNEGLIVDAGFLKPLVRLLDYKDSEEIQCHAVSTLENLAASSEKNRKEFFESGAVEKCKELALDSPVSVQSEISACFAILALADVSKLDLLEANILDALIPMTFSQNQEVSGNAAAALANLCSRVNNYTKIIEAWDRPNEGIRGFLIRFLKSDYATFEHIALWTILQLLESHNDKVEDLVKNDDDIINGVRKMADVTFERLQRSGIDVKNPGSNNNPSSNDNNSNNNDTGSEHQPVEDASLELYNITQQILQFLH [R276E;R317E;R359E]

Variants of: B3
Settings: with vac17_yeast VAC17, P25591

effect of a mutation on the interaction	Variant
with no effect	MGSCCSCLKDSSDEASVSPIADNEREAVTLLLGYLEDKDQLDFYSGGPLKALTTLVYSDNLNLQRSAALAFAEITEKYVRQVSREVLEPILILLQSQDPQIQVAACAALGNLAVNNENKLLIVEMGGLEPLINQMMGDNVEVQCNAVGCITNLATRDDNKHKIATSGALIPLTKLAKSKHIRVQRNATGALLNMTHSEENRKELVNAGAVPVLVSLLSSTDPDVQYYCTTALSNIAVDEANRKKLAQTEPRLVSKLVSLMDSPSSRVKCQATLALENLASDTSYQLEIVRAGGLPHLVKLIQSDSIPLVLASVACIENISIHPLNEGLIVDAGFLKPLVRLLDYKDSEEIQCHAVSTLENLAASSEKNRKEFFESGAVEKCKELALDSPVSVQSEISACFAILALADVSKLDLLEANILDALIPMTFSQNQEVSGNAAAALANLCSRVNNYTKIIEAWDRPNEGIRGFLIRFLKSDYATFEHIALWTILQLLESHNDKVEDLVKNDDDIINGVRKMADVTFERLQRSGIDVKNPGSNNNPSSNDNNSNNNDTGSEHQPVEDASLELYNITQQILQFLH [R276E;R317E;R359E]

Variants of: B4
Settings: with tco89_yeast TCO89, Q08921

effect of a mutation on the interaction	Variant
with no effect	MGSCCSCLKDSSDEASVSPIADNEREAVTLLLGYLEDKDQLDFYSGGPLKALTTLVYSDNLNLQRSAALAFAEITEKYVRQVSREVLEPILILLQSQDPQIQVAACAALGNLAVNNENKLLIVEMGGLEPLINQMMGDNVEVQCNAVGCITNLATRDDNKHKIATSGALIPLTKLAKSKHIRVQRNATGALLNMTHSEENRKELVNAGAVPVLVSLLSSTDPDVQYYCTTALSNIAVDEANRKKLAQTEPRLVSKLVSLMDSPSSRVKCQATLALENLASDTSYQLEIVRAGGLPHLVKLIQSDSIPLVLASVACIENISIHPLNEGLIVDAGFLKPLVRLLDYKDSEEIQCHAVSTLENLAASSEKNRKEFFESGAVEKCKELALDSPVSVQSEISACFAILALADVSKLDLLEANILDALIPMTFSQNQEVSGNAAAALANLCSRVNNYTKIIEAWDRPNEGIRGFLIRFLKSDYATFEHIALWTILQLLESHNDKVEDLVKNDDDIINGVRKMADVTFERLQRSGIDVKNPGSNNNPSSNDNNSNNNDTGSEHQPVEDASLELYNITQQILQFLH [R276E;R317E;R359E]

Variants of: B5
Settings: with vac8_yeast VAC8, P39968

effect of a mutation on the interaction	Variant
disrupting interaction strength	MTRPPLVRGIFSLGLSVAVLKGVEKTVRKHLERQGWIEPQKVDYELIFTIDRLKNLVDNKREALTAEQPDAGELSWRKVFNFISRQSSELDTRIYVLILLLSFLLPIAWTVLDGDRETTLEDKDNDCNVDLIENERRLKHYNDGERAVLQFGKNRSEPIILSYKDMNVLEGEHEFTSKEEHSNSHLTSKSENALNQVGSEDLLGCHLEKQLEEDKNEPNGEADGEDDNNREKDCSSSSEVESQSKCRKESTAEPDSLSRDTRTTSSLKSSTSFPISFKGSIDLKSLNQPSSLLHIQVSPTKSSNLDAQVNTEQAYSQPERY [F319E]
